Binding signal (fold reduction of DNA pulled down) data for one substance are collected here from PMC3641235.

The data set concerns HDM2 (C-terminal HA);p53 (human;human?). In words: pull-down (anti-HA beads, real-time PCR). Conditions: 100 uM Nutlin-3A (disrupts p53-HDM2); Anti-HA protein G beads; blocked in PBST-3% BSA, IVT HDM2 30 min, Nutlin 1 h, IVT p53 1 h; washes PBST-0.1% BSA then PBS; temperature and pH not given. For orientation: Quantitative PCR measures a nucleic acid by following its amplification.

With “2ConA-HDM2 DNA template (two CONA p53 response elements)”, the binding signal (fold reduction of DNA pulled down) was found to be 383.
